In IntAct's records for PubMed 23929946:

B1: Protein BRASSINOSTEROID … 1 (Arabidopsis thaliana (Mouse-ear cress)), O22476 (parent)
chain: MKTFSSFFLSVTTLFFFSFFSLSFQASPSQSLYREIHQLISFKDVLPDKNLLPDWSSNKNPCTFDGVTCRDDKVTSIDLSSKPLNVGFSAVSSSLLSLTGLESLFLSNSHINGSVSGFKCSASLTSLDLSRNSLSGPVTTLTSLGSCSGLKFLNVSSNTLDFPGKVSGGLKLNSLEVLDLSANSISGANVVGWVLSDGCGELKHLAISGNKISGDVDVSRCVNLEFLDVSSNNFSTGIPFLGDCSALQHLDISGNKLSGDFSRAISTCTELKLLNISSNQFVGPIPPLPLKSLQYLSLAENKFTGEIPDFLSGACDTLTGLDLSGNHFYGAVPPFFGSCSLLESLALSSNNFSGELPMDTLLKMRGLKVLDLSFNEFSGELPESLTNLSASLLTLDLSSNNFSGPILPNLCQNPKNTLQELYLQNNGFTGKIPPTLSNCSELVSLHLSFNYLSGTIPSSLGSLSKLRDLKLWLNMLEGEIPQELMYVKTLETLILDFNDLTGEIPSGLSNCTNLNWISLSNNRLTGEIPKWIGRLENLAILKLSNNSFSGNIPAELGDCRSLIWLDLNTNLFNGTIPAAMFKQSGKIAANFIAGKRYVYIKNDGMKKECHGAGNLLEFQGIRSEQLNRLSTRNPCNITSRVYGGHTSPTFDNNGSMMFLDMSYNMLSGYIPKEIGSMPYLFILNLGHNDISGSIPDEVGDLRGLNILDLSSNKLDGRIPQAMSALTMLTEIDLSNNNLSGPIPEMGQFETFPPAKFLNNPGLCGYPLPRCDPSNADGYAHHQRSHGRRPASLAGSVAMGLLFSFVCIFGLILVGREMRKRRRKKEAELEMYAEGHGNSGDRTANNTNWKLTGVKEALSINLAAFEKPLRKLTFADLLQATNGFHNDSLIGSGGFGDVYKAILKDGSAVAIKKLIHVSGQGDREFMAEMETIGKIKHRNLVPLLGYCKVGDERLLVYEFMKYGSLEDVLHDPKKAGVKLNWSTRRKIAIGSARGLAFLHHNCSPHIIHRDMKSSNVLLDENLEARVSDFGMARLMSAMDTHLSVSTLAGTPGYVPPEYYQSFRCSTKGDVYSYGVVLLELLTGKRPTDSPDFGDNNLVGWVKQHAKLRISDVFDPELMKEDPALEIELLQHLKVAVACLDDRAWRRPTMVQVMAMFKEIQAGSGIDSQSTIRSIEDGGFSTIEMVDMSIKEVPEGKL
partner: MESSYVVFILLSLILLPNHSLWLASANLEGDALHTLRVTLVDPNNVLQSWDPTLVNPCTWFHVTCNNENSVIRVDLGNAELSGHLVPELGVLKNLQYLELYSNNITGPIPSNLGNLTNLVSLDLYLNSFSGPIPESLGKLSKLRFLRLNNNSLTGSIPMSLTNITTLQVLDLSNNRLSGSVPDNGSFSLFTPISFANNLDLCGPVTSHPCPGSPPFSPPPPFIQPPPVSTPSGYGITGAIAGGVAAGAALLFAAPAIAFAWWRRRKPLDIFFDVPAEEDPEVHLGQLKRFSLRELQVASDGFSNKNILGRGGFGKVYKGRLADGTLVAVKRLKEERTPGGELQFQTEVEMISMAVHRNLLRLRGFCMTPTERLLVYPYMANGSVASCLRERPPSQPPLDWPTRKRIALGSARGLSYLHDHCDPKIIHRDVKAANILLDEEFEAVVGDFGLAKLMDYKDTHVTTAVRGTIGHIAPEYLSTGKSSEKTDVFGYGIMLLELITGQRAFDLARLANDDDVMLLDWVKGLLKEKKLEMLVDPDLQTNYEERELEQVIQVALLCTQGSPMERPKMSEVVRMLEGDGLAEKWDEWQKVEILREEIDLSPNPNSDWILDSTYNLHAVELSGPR

Variants of: B1
Conditions: with serk1_arath SERK1, Q94AG2

Q: T750I was tested. Which “effect of a mutation on the interaction” value did it give?
A: The value was “disrupting interaction strength”.
